Experimental data: publication PMC11667269 (Journal for Immunotherapy of Cancer, 2024)

What was measured:
[1] = target: human CD79b (hCD79b) immobilised for surface plasmon resonance (Homo sapiens, UniProt P40259); assay: SPR
[2] = target: CD19 expressed on K562 cells (K562-CD19) (Homo sapiens, UniProt P15391); assay: flow cytometry on cells
Sequence of CD19 expressed on K562 cells (K562-CD19) (P15391 20-556): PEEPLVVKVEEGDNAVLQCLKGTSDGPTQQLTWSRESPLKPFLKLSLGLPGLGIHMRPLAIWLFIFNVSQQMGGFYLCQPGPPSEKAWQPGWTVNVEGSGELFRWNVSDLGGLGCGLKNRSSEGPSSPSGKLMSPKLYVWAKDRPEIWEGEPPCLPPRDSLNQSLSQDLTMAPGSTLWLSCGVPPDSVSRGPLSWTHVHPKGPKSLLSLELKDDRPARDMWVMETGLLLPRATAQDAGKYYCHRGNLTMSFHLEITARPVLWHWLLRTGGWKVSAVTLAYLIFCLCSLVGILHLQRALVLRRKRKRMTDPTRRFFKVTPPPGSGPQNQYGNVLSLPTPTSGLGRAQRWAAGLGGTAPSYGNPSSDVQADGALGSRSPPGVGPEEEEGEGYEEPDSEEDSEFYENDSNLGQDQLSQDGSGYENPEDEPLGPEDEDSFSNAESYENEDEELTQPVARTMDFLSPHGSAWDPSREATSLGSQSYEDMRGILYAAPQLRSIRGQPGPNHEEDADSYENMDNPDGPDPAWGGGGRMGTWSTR

Sequence of human CD79b (hCD79b) immobilised for surface plasmon resonance (P40259 29-229): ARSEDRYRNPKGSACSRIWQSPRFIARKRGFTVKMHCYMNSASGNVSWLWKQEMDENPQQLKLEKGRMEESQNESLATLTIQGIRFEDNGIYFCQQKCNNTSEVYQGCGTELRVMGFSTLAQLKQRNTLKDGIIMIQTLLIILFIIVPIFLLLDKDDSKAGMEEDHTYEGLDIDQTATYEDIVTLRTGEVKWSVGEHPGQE

B1: CARLY2 monoclonal murine antibody against CD79b (mouse monoclonal IgG1 CD79b.1.50) (antibody, V domains shown)
VH: QVQLQQPGAELVRPGASVKLSCKASGYTFTTYWMNWVKQRPGQGLEWIGMIDPSDSETHYNQMFKDKATLTVDKSSTTAYMQLSSLTSEDSAVYYCARTLSYWGQGTLVTVSA
VL: not shown
**Q.** What does the source list for B1?
**A.** binding result [1]: binds; binding result [2]: no binding
